From US20220017622A1 (Pfizer, published 2022)

T1: human B7-H4 on cells (human, UniProt Q7Z7D3 25-282)
T1 sequence (looked up): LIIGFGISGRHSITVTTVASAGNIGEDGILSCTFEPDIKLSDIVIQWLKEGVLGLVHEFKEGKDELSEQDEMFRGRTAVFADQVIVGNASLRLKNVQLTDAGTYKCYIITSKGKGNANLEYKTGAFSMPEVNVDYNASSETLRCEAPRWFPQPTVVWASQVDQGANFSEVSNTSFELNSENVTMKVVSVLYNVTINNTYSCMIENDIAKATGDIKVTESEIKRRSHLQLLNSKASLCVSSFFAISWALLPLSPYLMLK


Target: T1, human B7-H4 on cells
Experiment: cell-based or functional assay

| Binder | T cell mediated tumor cell killing EC50, HCC1954-Luc |
| --- | --- |
| B7-H4xCD3 bispecific antibody 0998 (bispecific antibody, IgG2) heavy 1: EVQLLESGGGLVQPGGSLRLSCAASGFTFSSYAMSWVRQAPGKGLEWVSAISGGGGSTQYADSVKGRFTISRDNSKNTLYLQMNSLRAEDTAVYYCARDIQWFGESTLFDYWGQGTLVTVSSASTKGPSVFPLAPCSRSTSESTAALGCLVKDYFPEPVTVSWNSGALTSGVHTFPAVLQSSGLYSLSSVVTVPSSNFGTQTYTCNVDHKPSNTKVDKTVERKCEVECPECPAPPVAGPSVFLFPPKPKDTLMISRTPEVTCVVVAVSHEDPEVQFNWYVDGVEVHNAKTKPREEQFNSTFRVVSVLTVVHQDWLNGKEYKCKVSNKGLPSSIEKTISKTKGQPREPQVYTLPPSREEMTKNQVSLTCEVKGFYPSDIAVEWESNGQPENNYKTTPPMLDSDGSFFLYSKLTVDKSRWQQGNVFSCSVMHEALHNHYTQKSLSLSPG light 1: DIQLTQSPSTLSASVGDRVTITCRASQSIRSWLAWFQQKPGKAPKLLIYKASSLEGGVPSRFSGSGSGTEFTLTISSLQPDDFATYYCQQYNSYSRTFGQGTKVEIKRTVAAPSVFIFPPSDEQLKSGTASVVCLLNNFYPREAKVQWKVDNALQSGNSQESVTEQDSKDSTYSLSSTLTLSKADYEKHKVYACEVTHQGLSSPVTKSFNRGEC heavy 2: EVQLVESGGGLVQPGGSLRLSCAASGFTFSDYYMTWVRQAPGKGLEWVAFIRNQARGYTSDHNPSVKGRFTISRDNAKNSLYLQMNSLRAEDTAVYYCARDRPSYYVLDYWGQGTTVTVSSASTKGPSVFPLAPCSRSTSESTAALGCLVKDYFPEPVTVSWNSGALTSGVHTFPAVLQSSGLYSLSSVVTVPSSNFGTQTYTCNVDHKPSNTKVDKTVERKCRVRCPRCPAPPVAGPSVFLFPPKPKDTLMISRTPEVTCVVVAVSHEDPEVQFNWYVDGVEVHNAKTKPREEQFNSTFRVVSVLTVVHQDWLNGKEYKCKVSNKGLPSSIEKTISKTKGQPREPQVYTLPPSREEMTKNQVSLTCLVKGFYPSDIAVEWESNGQPENNYKTTPPMLDSDGSFFLYSRLTVDKSRWQQGNVFSCSVMHEALHNHYTQKSLSLSPGK light 2: DIQMTQSPSSLSASVGDRVTITCTSSQSLFNVRSQKNYLAWYQQKPGKAPKLLIYWASTRESGVPSRFSGSGSGTDFTLTISSLQPEDFATYYCKQSYDLFTFGGGTKVEIKRTVAAPSVFIFPPSDEQLKSGTASVVCLLNNFYPREAKVQWKVDNALQSGNSQESVTEQDSKDSTYSLSSTLTLSKADYEKHKVYACEVTHQGLSSPVTKSFNRGEC | 410 nM |
| B7-H4xCD3 bispecific antibody 1003 (bispecific antibody, IgG2) heavy 1: EVQLLESGGGLVQPGGSLRLSCAASGFTFSSYAMSWVRQAPGKGLEWVSAISGGGGSTYYADSVKGRFTISRDNSKNTLYLQMNSLRAEDTAVYYCARDIQWFGESTLFDYWGQGTLVTVSSASTKGPSVFPLAPCSRSTSESTAALGCLVKDYFPEPVTVSWNSGALTSGVHTFPAVLQSSGLYSLSSVVTVPSSNFGTQTYTCNVDHKPSNTKVDKTVERKCEVECPECPAPPVAGPSVFLFPPKPKDTLMISRTPEVTCVVVAVSHEDPEVQFNWYVDGVEVHNAKTKPREEQFNSTFRVVSVLTVVHQDWLNGKEYKCKVSNKGLPSSIEKTISKTKGQPREPQVYTLPPSREEMTKNQVSLTCEVKGFYPSDIAVEWESNGQPENNYKTTPPMLDSDGSFFLYSKLTVDKSRWQQGNVFSCSVMHEALHNHYTQKSLSLSPG light 1: DIQMTQSPSSLSASVGDRVTITCRASQSTRSHLAWYQQKPGKAPKLLIYKASSLEGGVPSRFSGSGSGTDFTLTISSLQPEDFATYYCQQYGSYSRTFGQGTKVEIKRTVAAPSVFIFPPSDEQLKSGTASVVCLLNNFYPREAKVQWKVDNALQSGNSQESVTEQDSKDSTYSLSSTLTLSKADYEKHKVYACEVTHQGLSSPVTKSFNRGEC heavy 2: EVQLVESGGGLVQPGGSLRLSCAASGFTFSDYYMTWVRQAPGKGLEWVAFIRNQARGYTSDHNPSVKGRFTISRDNAKNSLYLQMNSLRAEDTAVYYCARDRPSYYVLDYWGQGTTVTVSSASTKGPSVFPLAPCSRSTSESTAALGCLVKDYFPEPVTVSWNSGALTSGVHTFPAVLQSSGLYSLSSVVTVPSSNFGTQTYTCNVDHKPSNTKVDKTVERKCRVRCPRCPAPPVAGPSVFLFPPKPKDTLMISRTPEVTCVVVAVSHEDPEVQFNWYVDGVEVHNAKTKPREEQFNSTFRVVSVLTVVHQDWLNGKEYKCKVSNKGLPSSIEKTISKTKGQPREPQVYTLPPSREEMTKNQVSLTCLVKGFYPSDIAVEWESNGQPENNYKTTPPMLDSDGSFFLYSRLTVDKSRWQQGNVFSCSVMHEALHNHYTQKSLSLSPGK light 2: DIQMTQSPSSLSASVGDRVTITCTSSQSLFNVRSQKNYLAWYQQKPGKAPKLLIYWASTRESGVPSRFSGSGSGTDFTLTISSLQPEDFATYYCKQSYDLFTFGGGTKVEIKRTVAAPSVFIFPPSDEQLKSGTASVVCLLNNFYPREAKVQWKVDNALQSGNSQESVTEQDSKDSTYSLSSTLTLSKADYEKHKVYACEVTHQGLSSPVTKSFNRGEC | 100 nM |
| B7-H4xCD3 bispecific antibody 1001 (bispecific antibody, IgG2) heavy 1: EVQLLESGGGLVQPGGSLRLSCAASGFTFSSYAMSWVRQAPGKGLEWVSAISGGGGSTYYADSVKGRFTISRDNSKNTLYLQMNSLRAEDTAVYYCARDIQWFGRSTLFDYWGQGTLVTVSSASTKGPSVFPLAPCSRSTSESTAALGCLVKDYFPEPVTVSWNSGALTSGVHTFPAVLQSSGLYSLSSVVTVPSSNFGTQTYTCNVDHKPSNTKVDKTVERKCEVECPECPAPPVAGPSVFLFPPKPKDTLMISRTPEVTCVVVAVSHEDPEVQFNWYVDGVEVHNAKTKPREEQFNSTFRVVSVLTVVHQDWLNGKEYKCKVSNKGLPSSIEKTISKTKGQPREPQVYTLPPSREEMTKNQVSLTCEVKGFYPSDIAVEWESNGQPENNYKTTPPMLDSDGSFFLYSKLTVDKSRWQQGNVFSCSVMHEALHNHYTQKSLSLSPG light 1: DIQLTQSPSTLSASVGDRVTITCRASQSIRSWLAWFQQKPGKAPKLLIYKASSLEGGVPSRFSGSGSGTEFTLTISSLQPDDFATYYCQQYNSYSRTFGQGTKVEIKRTVAAPSVFIFPPSDEQLKSGTASVVCLLNNFYPREAKVQWKVDNALQSGNSQESVTEQDSKDSTYSLSSTLTLSKADYEKHKVYACEVTHQGLSSPVTKSFNRGEC heavy 2: EVQLVESGGGLVQPGGSLRLSCAASGFTFSDYYMTWVRQAPGKGLEWVAFIRNQARGYTSDHNPSVKGRFTISRDNAKNSLYLQMNSLRAEDTAVYYCARDRPSYYVLDYWGQGTTVTVSSASTKGPSVFPLAPCSRSTSESTAALGCLVKDYFPEPVTVSWNSGALTSGVHTFPAVLQSSGLYSLSSVVTVPSSNFGTQTYTCNVDHKPSNTKVDKTVERKCRVRCPRCPAPPVAGPSVFLFPPKPKDTLMISRTPEVTCVVVAVSHEDPEVQFNWYVDGVEVHNAKTKPREEQFNSTFRVVSVLTVVHQDWLNGKEYKCKVSNKGLPSSIEKTISKTKGQPREPQVYTLPPSREEMTKNQVSLTCLVKGFYPSDIAVEWESNGQPENNYKTTPPMLDSDGSFFLYSRLTVDKSRWQQGNVFSCSVMHEALHNHYTQKSLSLSPGK light 2: DIQMTQSPSSLSASVGDRVTITCTSSQSLFNVRSQKNYLAWYQQKPGKAPKLLIYWASTRESGVPSRFSGSGSGTDFTLTISSLQPEDFATYYCKQSYDLFTFGGGTKVEIKRTVAAPSVFIFPPSDEQLKSGTASVVCLLNNFYPREAKVQWKVDNALQSGNSQESVTEQDSKDSTYSLSSTLTLSKADYEKHKVYACEVTHQGLSSPVTKSFNRGEC | 10 nM |
| B7-H4xCD3 bispecific antibody 1000 (bispecific antibody, IgG2) heavy 1: EVQLLESGGGLVQPGGSLRLSCAASGFTFSSYAMSWVRQAPGKGLEWVSAISGGGGSTYYADSVKGRFTISRDNSKNTLYLQMNSLRAEDTAVYYCARDIQWHGESTLFDYWGQGTLVTVSSASTKGPSVFPLAPCSRSTSESTAALGCLVKDYFPEPVTVSWNSGALTSGVHTFPAVLQSSGLYSLSSVVTVPSSNFGTQTYTCNVDHKPSNTKVDKTVERKCEVECPECPAPPVAGPSVFLFPPKPKDTLMISRTPEVTCVVVAVSHEDPEVQFNWYVDGVEVHNAKTKPREEQFNSTFRVVSVLTVVHQDWLNGKEYKCKVSNKGLPSSIEKTISKTKGQPREPQVYTLPPSREEMTKNQVSLTCEVKGFYPSDIAVEWESNGQPENNYKTTPPMLDSDGSFFLYSKLTVDKSRWQQGNVFSCSVMHEALHNHYTQKSLSLSPG light 1: DIQLTQSPSTLSASVGDRVTITCRASQSIRSWLAWFQQKPGKAPKLLIYKASSLEGGVPSRFSGSGSGTEFTLTISSLQPDDFATYYCQQYNSYSRTFGQGTKVEIKRTVAAPSVFIFPPSDEQLKSGTASVVCLLNNFYPREAKVQWKVDNALQSGNSQESVTEQDSKDSTYSLSSTLTLSKADYEKHKVYACEVTHQGLSSPVTKSFNRGEC heavy 2: EVQLVESGGGLVQPGGSLRLSCAASGFTFSDYYMTWVRQAPGKGLEWVAFIRNQARGYTSDHNPSVKGRFTISRDNAKNSLYLQMNSLRAEDTAVYYCARDRPSYYVLDYWGQGTTVTVSSASTKGPSVFPLAPCSRSTSESTAALGCLVKDYFPEPVTVSWNSGALTSGVHTFPAVLQSSGLYSLSSVVTVPSSNFGTQTYTCNVDHKPSNTKVDKTVERKCRVRCPRCPAPPVAGPSVFLFPPKPKDTLMISRTPEVTCVVVAVSHEDPEVQFNWYVDGVEVHNAKTKPREEQFNSTFRVVSVLTVVHQDWLNGKEYKCKVSNKGLPSSIEKTISKTKGQPREPQVYTLPPSREEMTKNQVSLTCLVKGFYPSDIAVEWESNGQPENNYKTTPPMLDSDGSFFLYSRLTVDKSRWQQGNVFSCSVMHEALHNHYTQKSLSLSPGK light 2: DIQMTQSPSSLSASVGDRVTITCTSSQSLFNVRSQKNYLAWYQQKPGKAPKLLIYWASTRESGVPSRFSGSGSGTDFTLTISSLQPEDFATYYCKQSYDLFTFGGGTKVEIKRTVAAPSVFIFPPSDEQLKSGTASVVCLLNNFYPREAKVQWKVDNALQSGNSQESVTEQDSKDSTYSLSSTLTLSKADYEKHKVYACEVTHQGLSSPVTKSFNRGEC | 100 nM |
